Assay: soluble on expression in E. coli; label from the status in PepcDB or PDB records
For “MTIASITLTNNRLEWQSLLPNTTPYEALFATASQLEPVAFSAYQPRLENGMTLFCHPQSQPRFMLIKAQESTDYLALIAQAVKALQPEASNLLGGDYLVHGHHVTWQSAQHGDERFAAQSTCLYQEWVEPEQLFGCVRMYKDQITLQPGLVHQVNGGVLILSVRALQAQPLMWLRLKQMIVQQRFDWLSTDETRPLPVHIPSMPLDLRLILVGDRLGLADFHDMEPELGDLAIYGEFEAELPLVDIEGMALWCGYINTLLQQKQLPALSADAWPVLFRQAVRYSGDQGSLPLCPQWLTQQLAEAALYAENDTISANALEAALNARNWRQNYLAERMQDEIELGQILVETEGHVVGQINALSVLEYPGHPHAFGEPARISCVVHLGDGEFVDVERKAELGGNIHAKGMMIMQAFLMSELELDQPLPFSASIVFEQSYGEVDGDSASLAELCALVSALSQQPINQQIAVTGSVDQFGNVQPIGGVNEKIEGFFETCQRRGLTGNQGVILPTTNVRHLCLNQAVVEAVQKGQFHLWAVDTVAEALPLLTGVTYDDEQQPSLLGAIQERIAQINPQDKRRWPWPLRWLNWFNQG”, the “soluble on expression in E. coli” value was “soluble”. For “MVKKVKGRRYEGSIEQRSKNSWRMRVTVGYDYKGTPIRADRTTRTKNERERERELRNFITELEQNGYTAPARMTFKAFVENEYMPKHAQNNLEVKTWTEYYKSIVARAYPAFGGVQMDKITTLHIVNLVAKLQKPGARLDVKPTDSDEKKNKPLSPRSIRNIYFAINSVFETAVEWKVIPINPAEGVRLPKTTKRPPTIYTPAEIELLNAALVKEPLRLQVMIYIALISGCREAELAALEVKHVNLIEDELTFEQTLVAKAGEGLLLKESTKNDVAGIVSIPAWLTNLIETYISNEVLDLKTEGKWANHKFLFADMEGKPIRPDSIYQRWKRFLERHNLPVIRFHDLRHTSATLLLNKGRDIKIIQERLRHKSSVTTSNIYAHVLKDTHKDAASDFENPF”, the “soluble on expression in E. coli” value was “not soluble”. With “MRYTMDIEFSQIHEMVYMHDIVNSDSKKKPRIPLKKFLNAENVLTQTTSWTLNSRYVNVNSVNKVNVKSKVKNSYISRSVNDEFSLTDDEINSFKETLVLSSIDSLSKLVLNNPLSVLFTSTVRRNNNRAKMNVEFDSWICTRCCLEHHHHHH” the “soluble on expression in E. coli” value was “soluble”. For “MNNIDQLYTETKSMLSHIQNTPESDELLKQIEDFVATRSELIQEISLPLSEEERKQMKLILTWDQLIVKEMERLKQSIATELQQMKRKRVMHTTYLNPYNNITIDGTYYDKRKLEHHHHHH”, the “soluble on expression in E. coli” value was “soluble”. In the case of “MSGESVIEFTGFIKACRLFRENRLAEAEAVCTNLLRKNPLDQATWALKMQCLSDSTYVDELENEDMGLAETFLDQNVIAPNARPGTSFARPKTSAKGVNPILRPTTNAGRPLSGVVRPQSSFKSGSMDQAVRTARTAKTARAVSSTSARNMRLGTASMAAGADGEFVNLARLNIDKYAADPQVNRQLFEYVFYYLNDIRVAHQIAGTASKAAGFEDYYWKNQLAKCYLRLGMLQDATKQLQSSLEQKKLIETFALLSKAYNRVDQPMAALKTYSAGLEVFPENVTMLTGMARVQEALGEYDESVKLYKRVLDAESNNIEAIACVATTYYYGGKPELAMRYYRRILQMGVSSPELFLNIGLCCMAAQQFDFALSSILRAQSTMTDDVAADVWYNIGQILVDIGDLVSAARSFRIALSHDPDHSESLVNLGILKHREGKIDEARSLYSSATSKNPYMFEGNYNLGLVSFTQGKYHECRELIEKALAAFPEHEHCKKILNHLKPLYESI”, the “soluble on expression in E. coli” value is reported as “not soluble”. For “GSMFPHHSITESVNYDVKTFGSSLPVKVMEALTLAEVDDQLTINIDEGGWACLVCKEKLIIWKIALSPITKLSVCKELQLPPSDFHWSADLVALSYSSPSGEAHSTQAVAVMVATREGSIRYWPSLAGEDTYTEAFVDSGGDKTYSFLTAVQGGSFILSSSGSQLIRLIPESSGKIHQHILPQGQGMLSGIGRKVSSLFGILSPSSDLTLSSVLWDRERSSFYSLTSSNISKWELDDSSEKHAYSWDINRALKENITDAIWGSESNYEAIKEGVNIRYLDLKQNCDGLVILAAAWHSADNPCLIYYSLITIEDNGCQMSDAVTVEVTQYNPPFQSEDLILCQLTVPNFSNQTAYLYNESAVYVCSTGTGKFSLPQEKIVFNAQGDSVLGAGACGGVPIIFSRNSGLVSITSRENVSILAEDLEGSLASSVAGPNSESMIFETTTKNETIA”, the “soluble on expression in E. coli” value was “soluble”. In the case of “MSLRDLPGQTGVQFTTGGVNHFLSWKSGGERHYFTSLAFTHTNRNRTCWLYGLDYQIKEYTYENKAIPKAQFTGELGYFIPVLSDKGRNVCFRIGLSVLGGFETVNWGTSLLPDGAAVTNGDCFIYGGGLTAAFDVWLTDRIILLMQVKERAFFGTDAGNFHTQIGLGVRLIINEGHHHHHH”, the “soluble on expression in E. coli” value is reported as “not soluble”.
